From US20200325212 come the findings set out here.

Series [1] addresses CTLA4-Fc Mxx9 (non-cleavable mask), P16410.
The target of series [2] is CTLA4-Fc MMP9 (MMP9-cleavable CTLA4-Fc mask; CTLA4-Fc_WT).
In series [3] the target is T1, mLCN2-Fc (bivalent m-Lcn2 fused to human IgG1 Fc).
T1 chain: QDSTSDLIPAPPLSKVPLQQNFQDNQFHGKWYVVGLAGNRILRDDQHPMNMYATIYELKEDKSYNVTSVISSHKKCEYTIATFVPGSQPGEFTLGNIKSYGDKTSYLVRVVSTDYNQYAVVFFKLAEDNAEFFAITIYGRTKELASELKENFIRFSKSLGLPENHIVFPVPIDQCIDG

Chain of CTLA4-Fc MMP9 (MMP9-cleavable CTLA4-Fc mask; CTLA4-Fc_WT) (chain, as listed by the source): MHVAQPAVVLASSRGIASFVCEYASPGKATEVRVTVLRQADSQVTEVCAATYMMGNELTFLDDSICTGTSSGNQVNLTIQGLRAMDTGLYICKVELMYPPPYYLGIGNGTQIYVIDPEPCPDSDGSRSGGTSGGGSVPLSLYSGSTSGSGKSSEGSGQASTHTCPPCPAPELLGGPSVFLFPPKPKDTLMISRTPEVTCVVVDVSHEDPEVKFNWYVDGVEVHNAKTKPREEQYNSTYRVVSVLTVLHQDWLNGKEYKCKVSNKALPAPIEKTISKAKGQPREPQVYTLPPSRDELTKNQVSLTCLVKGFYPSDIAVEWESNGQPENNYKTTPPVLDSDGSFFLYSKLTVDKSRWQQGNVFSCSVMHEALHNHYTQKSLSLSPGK
Chain of CTLA4-Fc Mxx9 (non-cleavable mask), P16410 (P16410 whole entry, looked up, tested part not stated): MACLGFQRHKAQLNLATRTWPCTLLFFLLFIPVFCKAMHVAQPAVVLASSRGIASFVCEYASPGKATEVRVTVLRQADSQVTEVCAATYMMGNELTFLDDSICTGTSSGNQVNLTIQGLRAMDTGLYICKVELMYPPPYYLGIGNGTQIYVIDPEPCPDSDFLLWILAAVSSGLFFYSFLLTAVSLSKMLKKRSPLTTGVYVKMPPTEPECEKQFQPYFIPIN

B1: recombinant human MMP9 (ProSpecBio) (protein)
chain: APRQRQSTLVLFPGDLRTNLTDRQLAEEYLYRYGYTRVAEMRGESKSLGPALLLLQKQLSLPETGELDSATLKAMRTPRCGVPDLGRFQTFEGDLKWHHHNITYWIQNYSEDLPRAVIDDAFARAFALWSAVTPLTFTRVYSRDADIVIQFGVAEHGDGYPFDGKDGLLAHAFPPGPGIQGDAHFDDDELWSLGKGVVVPTRFGNADGAACHFPFIFEGRSYSACTTDGRSDGLPWCSTTANYDTDDRFGFCPSERLYTQDGNADGKPCQFPFIFQGQSYSACTTDGRSDGYRWCATTANYDRDKLFGFCPTRADSTVMGGNSAGELCVFPFTFLGKEYSTCTSEGRGDGRLWCATTSNFDSDKKWGFCPDQGYSLFLVAAHEFGHALGLDHSSVPEALMYPMYRFTEGPPLHKDDVNGIRHLYGPRPEPEPRPPTTTTPQPTAPPTVCPTGPPTVHPSERPTAGPTGPPSAGPTGPPTAGPSTATTVPLSPVDDACNVNIFDAIAEIGNQLYLFKDGKYWRFSEGRGSRPQGPFLIADKWPALPRKLDSVFEERLSKKLFFFSGRQVWVYTGASVLGPRRLDKLGLGADVAQVTGALRSGRGKMLLFSGRRLWRFDVKAQMVDPRSASEVDRMFPGVPLDTHDVFQYREKAYFCQDRFYWRVSSRSELNQVDQVGYVTYDILQCPED
With B1, the entries for the “cleavage, SDS-PAGE” value in series [1], in series [2] and in series [3] were “Addition of MMP9 had no effect on CTLA4-Fc Mxx9 bands”, “Recombinant MMP9 was demonstrated to effectively cleave the CTLA4-MMP9-Fc mask” and “but not the m-Lcn2-Fc”, respectively. In addition, the “intensity of the full-length band, time course of cleavage at 37 °C, SDS-PAGE” value in series [2] is given as “At 2 h the intensity of the full-length band was ~50% of the 0 h timepoint”.
